This is an account of results in paper PMC9371974 (Nature Structural & Molecular Biology, 2022).

Numbering of substitutions follows the chain as printed. Names and notes keep the numbering of the source.

Common to all, as to conditions: both partners purified
In assay [1] the target is recombinant mouse prion protein immobilised for SPR (mPrP) (Mus musculus, UniProt P04925). The assay is described as follows: SPR. A general note: In SPR one partner is held on a chip, and binding of the other changes the refractive index at the surface.
Assay [2] deals with mPrP immobilized on the SPR sensor chip (rmPrP) (Mus musculus, UniProt P04925). The experiment in a line: SPR.
The target in assay [3] is full-length, recombinant mouse prion protein (rmPrP23-231) (Mus musculus, UniProt P04925). The experiment in a line: FRET or BRET.
For assay [4], the target named is globular domain fragment of recombinant human PrP (rhPrP121-230) (Homo sapiens, UniProt P04156). The experiment in a line: ELISA. For orientation: ELISA stands for enzyme-linked immunosorbent assay.
Assay [5] has as its target recombinant mouse PrP flexible tail fragment (rmPrP23-110) (Mus musculus, UniProt P04925). The assay is described as follows: ELISA.

B1: pomolog hcY57A (POM1 scFv, heavy chain Y57A) (scFv, V domains shown)
VH: QVQLQQSGTELVMPGASVKMSCKASGYTFTDYWMHWVKQRPGQGLEWIGSIDPSDSATSHNEKFKGKATLTVDESSSTAYMQLSSLTSEDSAVYFCSRSGYGYYAMEYWGQGTSVTVSS
VL: DIVLTQSPAILSVSPGERVSFSCRASQNIGTSIHWYQQRTNESPRLIIKYASESISGIPSRFSGSGSGTDFTLSINSVESEDIADYYCQQSNTWPYTFGGGTKLELK
As a reminder, the Kd is the constant that tells how readily two partners part at equilibrium. Usually koff stands for the rate constant with which the complex falls apart. What is called kon is a measure of how fast the partners come together. Regarding B1, in assay [1], the dissociation constant (Kd) amounted to 406 nM, the koff came out at 0.031 s⁻¹ and the kon stood at 77000 M⁻¹ s⁻¹.

B2: POM1 scFv pomolog lcY96A (scFv, V domains shown)
VH: B1 VH with A57Y
VL: B1 VL with Y96A
Take B2: the Kd stood at 123 nM in assay [2] and 138 nM in assay [3].

B3: pomolog hcY104A (POM1 scFv, heavy chain Y104A) (scFv, V domains shown)
VH: B1 VH with A57Y, Y104A
VL: B1 VL
Take B3: in assay [1], the dissociation constant Kd is 8.8 nM, the koff is 0.00021 s⁻¹ and the kon amounted to 36000 M⁻¹ s⁻¹.

B4: POM1 scFv pomolog hcD52A (scFv, V domains shown)
VH: B1 VH with D52A, A57Y
VL: B1 VL
Turning to B4, the results for the Kd in assay [2] and in assay [3] were 103 nM and 14.2 nM, respectively.

B5: pomolog lcW94A (POM1 scFv, light chain W94A) (scFv, V domains shown)
VH: B1 VH with A57Y
VL: B1 VL with W94A
B5: in assay [1], the dissociation constant Kd came to 201 nM, the koff was 0.027 s⁻¹ and the association rate constant (kon) is 310000 M⁻¹ s⁻¹.

B6: POM1 scFv pomolog lcW94A (scFv, V domains shown)
VH: B1 VH with A57Y
VL: B1 VL with W94A
Turning to B6, the equilibrium dissociation constant (Kd) in assay [2] was determined as 201 nM; in assay [3], 73.1 nM.

B7: POM1 scFv pomolog hcD55A (scFv, V domains shown)
VH: B1 VH with D55A, A57Y
VL: B1 VL
On to B7, for which the results for the Kd in assay [2] and in assay [3] were 372 nM and 110 nM, respectively.

B8: pomolog lcY50A (POM1 scFv, light chain Y50A) (scFv, V domains shown)
VH: B1 VH with A57Y
VL: B1 VL with Y50A
For B8, in assay [1], the Kd was 313 nM, the koff amounted to 0.0082 s⁻¹ and the kon turned out to be 57000 M⁻¹ s⁻¹.

B9: POM1 scFv pomolog lcY50A (scFv, V domains shown)
VH: B1 VH with A57Y
VL: B1 VL with Y50A
B9: the equilibrium dissociation constant (Kd) in assay [2] was found to be 313 nM; in assay [3] it was 63.4 nM.

B10: POM1 scFv pomolog hcY57A (scFv, V domains shown)
VH: B1 VH
VL: B1 VL
Turning to B10, the Kd was determined as 406 nM in assay [2] and 225 nM in assay [3].

B11: pomolog lcS91A (POM1 scFv, light chain S91A) (scFv, V domains shown)
VH: B1 VH with A57Y
VL: B1 VL with S91A
For the molecule B11, in assay [1], the dissociation constant Kd was determined as 1430 nM, the dissociation rate constant (koff) was 0.018 s⁻¹ and the association rate constant (kon) is 13000 M⁻¹ s⁻¹.

B12: pomolog hcD55A (POM1 scFv, heavy chain D55A) (scFv, V domains shown)
VH: B1 VH with D55A, A57Y
VL: B1 VL
In the case of B12, in assay [1], the Kd came to 372 nM, the koff was found to be 0.037 s⁻¹ and the on-rate (kon) is 100000 M⁻¹ s⁻¹.

B13: POM1 scFv pomolog lcS32A (scFv, V domains shown)
VH: B1 VH with A57Y
VL: B1 VL with S32A
Turning to B13, the dissociation constant (Kd) in assay [2] is 9.98 nM; in assay [3], 7.3 nM.

B14: POM1 scFv pomolog lcS91A (scFv, V domains shown)
VH: B1 VH with A57Y
VL: B1 VL with S91A
Turning to B14, the Kd amounted to 1430 nM in assay [2] and 92.3 nM in assay [3].

B15: pomolog lcY96A (POM1 scFv, light chain Y96A) (scFv, V domains shown)
VH: B1 VH with A57Y
VL: B1 VL with Y96A
As to B15, in assay [1], the Kd turned out to be 123 nM, the koff was 0.0074 s⁻¹ and the on-rate constant (kon) came to 62000 M⁻¹ s⁻¹.

B16: POM1 scFv pomolog hcY101A (scFv, V domains shown)
VH: B1 VH with A57Y, Y101A
VL: B1 VL
For B16, the dissociation constant Kd in assay [2] was found to be 11.5 nM; in assay [3], 1.5 nM.

B17: POM1 scFv pomolog hcY104A (scFv, V domains shown)
VH: B1 VH with A57Y, Y104A
VL: B1 VL
In the case of B17, the Kd in assay [2] worked out at 8.79 nM; in assay [3], 26 nM.

B18: pomolog lcS32A (POM1 scFv, light chain S32A) (scFv, V domains shown)
VH: B1 VH with A57Y
VL: B1 VL with S32A
B18: in assay [1], the Kd came out at 10 nM, the koff came to 0.00059 s⁻¹ and the kon came to 64000 M⁻¹ s⁻¹.

B19:  (antibody, V domains shown)
VH: B1 VH with A57Y, Y104A
VL: B1 VL
notes: also called holo-Y104A; hcY104A IgG holoantibody
With B19, the binding result in assay [4] was “binds”; in assay [5], “no binding”.

B20: pomolog hcY101A (POM1 scFv, heavy chain Y101A) (scFv, V domains shown)
VH: B1 VH with A57Y, Y101A
VL: B1 VL
Regarding B20, in assay [1], the equilibrium dissociation constant (Kd) amounted to 11 nM, the off-rate constant (koff) is 0.00071 s⁻¹ and the kon was found to be 63000 M⁻¹ s⁻¹.

B21: pomolog hcD52A (POM1 scFv, heavy chain D52A) (scFv, V domains shown)
VH: B1 VH with D52A, A57Y
VL: B1 VL
As to B21, in assay [1], the Kd is 103 nM, the koff came out at 0.046 s⁻¹ and the association rate constant (kon) was 330000 M⁻¹ s⁻¹.
